Holding throughout (details): tags: N-terminal His6 removed by site-specific protease, baculovirus/Sf9
One series has as its target ΔdsRBD human Dicer (Homo sapiens, UniProt Q9UPY3 SEQ:1-1922, del1844-1922). The experiment in a line: filter; within three-fold of full-length; dsRBD deletion did not significantly affect binding; 5 mM EDTA. The protocol: A serial dilution of proteins were incubated in a buffer containing 20 mM Tris-Cl (pH 7.5), 25 mM NaCl, 5 mM EDTA, 1 mM dithiothreitol (DTT), 1% glycerol and ~0.5-1 nM (1500 c.p.m.) of ^32P-labeled duplex RNA substrate (one strand was labeled) at room temperature for 60 min […] After this incubation, 25 µl of each reaction were used for dot-blotting, which was conducted in a dot-blot apparatus equipped with 3 membranes of Tuffryn, Protran and Nytran (from top to bottom). After dried, the bound (on Protran) or free (on Nytran) RNAs were detected and quantified with Phosphoimager (GE Healthcare). Percentage of bound RNAs was calculated by 100 multiplied by the ratio of radioactivity (volumes) detected on the Protran membrane over the total input volumes (radioactivity). The bound RNAs (%) (Y-axle) were plotted against protein concentrations (X-axle). K_d was determined by global fitting to the equation of kobsd = (kmax ×[Dicer])(K_{1/2} + [Dicer])^-1, here $kobsd$ is the observed rate constant at a particular protein concentration, $kmax$ is the maximal rate constant with saturating protein, and K_{1/2} (or K_d) is the protein concentration that provides half the maximal rate. Curve fitting was conducted with KleidaGraph (Synery Software).
RNA. […] These values are similar to those measured previously (Provost et al, 2002; Vermeulen et al, 2005).

For series [1], the target named is T1, ΔDEAD human Dicer (lacks DExD/H-box domain, aa 1-604 deleted) (Homo sapiens, UniProt Q9UPY3 SEQ:1-1318).
T1 chain: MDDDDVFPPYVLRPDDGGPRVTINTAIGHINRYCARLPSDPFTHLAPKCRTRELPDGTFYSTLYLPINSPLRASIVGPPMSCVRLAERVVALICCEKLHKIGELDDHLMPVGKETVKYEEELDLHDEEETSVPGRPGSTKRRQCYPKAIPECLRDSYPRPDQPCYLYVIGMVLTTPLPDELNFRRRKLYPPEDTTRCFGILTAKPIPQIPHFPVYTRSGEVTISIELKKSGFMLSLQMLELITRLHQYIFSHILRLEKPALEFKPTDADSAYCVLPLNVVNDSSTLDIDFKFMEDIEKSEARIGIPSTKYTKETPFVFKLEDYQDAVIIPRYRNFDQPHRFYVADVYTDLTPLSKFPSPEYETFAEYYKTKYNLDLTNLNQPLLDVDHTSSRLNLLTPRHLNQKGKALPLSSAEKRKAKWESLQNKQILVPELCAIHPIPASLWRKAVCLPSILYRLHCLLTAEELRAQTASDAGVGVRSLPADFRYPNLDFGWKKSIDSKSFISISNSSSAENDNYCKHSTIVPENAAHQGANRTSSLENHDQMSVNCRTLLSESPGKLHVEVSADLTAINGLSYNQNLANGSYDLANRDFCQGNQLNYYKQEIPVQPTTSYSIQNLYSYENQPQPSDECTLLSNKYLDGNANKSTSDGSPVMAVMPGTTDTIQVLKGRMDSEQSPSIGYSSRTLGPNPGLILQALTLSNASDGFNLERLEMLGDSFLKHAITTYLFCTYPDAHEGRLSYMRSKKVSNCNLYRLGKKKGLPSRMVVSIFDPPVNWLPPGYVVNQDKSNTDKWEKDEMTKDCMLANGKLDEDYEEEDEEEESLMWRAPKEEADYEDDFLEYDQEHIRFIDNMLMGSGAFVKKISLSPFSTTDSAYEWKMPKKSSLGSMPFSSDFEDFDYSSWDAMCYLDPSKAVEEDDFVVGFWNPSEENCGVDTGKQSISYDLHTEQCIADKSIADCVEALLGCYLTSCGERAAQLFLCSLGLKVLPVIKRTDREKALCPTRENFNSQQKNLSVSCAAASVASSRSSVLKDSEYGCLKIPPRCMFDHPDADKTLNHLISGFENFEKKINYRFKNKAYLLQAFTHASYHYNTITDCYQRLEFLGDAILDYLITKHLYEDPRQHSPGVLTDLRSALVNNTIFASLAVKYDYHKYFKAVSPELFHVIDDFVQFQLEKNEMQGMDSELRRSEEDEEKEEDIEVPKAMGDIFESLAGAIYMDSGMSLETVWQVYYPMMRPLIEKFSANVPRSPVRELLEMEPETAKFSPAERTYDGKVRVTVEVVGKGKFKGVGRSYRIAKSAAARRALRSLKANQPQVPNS
The series is described as follows: filter; within three-fold of full-length; 5 mM EDTA; exact Kd only in figure. The protocol: (§1) After dried, the bound (on Protran) or free (on Nytran) RNAs were detected and quantified with Phosphoimager (GE Healthcare). Percentage of bound RNAs was calculated by 100 multiplied by the ratio of radioactivity (volumes) detected on the Protran membrane over the total input volumes (radioactivity). The bound RNAs (%) (Y-axle) were plotted against protein concentrations (X-axle). K_d was determined by global fitting to the equation of kobsd = (kmax ×[Dicer])(K_{1/2} + [Dicer])^-1, here $kobsd$ is the observed rate constant at a particular protein concentration, $kmax$ is the maximal rate constant with saturating protein, and K_{1/2} (or K_d) is the protein concentration that provides half the maximal rate. Curve fitting was conducted with KleidaGraph (Synery Software).
(§2) RNA. […] These values are similar to those measured previously (Provost et al, 2002; Vermeulen et al, 2005). […] The protein lacking both the DExD/H-box domain and the dsRBD (2DD) bound ~3-4 fold more weakly to either substrate relative to full-length Dicer (FIG. 3A-C). It is possible that this severely truncated protein is generally destabilized, or that the DExD/H-box domain plays a small but measurable role in substrate binding.

Series [2] deals with ΔDUF human Dicer (lacks DUF283) (Homo sapiens, UniProt Q9UPY3 SEQ:1-1922, del630-709). The description is as above. The protocol: as §1, §2
Where [3] appears, read: label: 5'-32P on one strand, perfect duplex with 2-nt 3' overhangs on both ends.

Chain of ΔdsRBD human Dicer (Q9UPY3 1-1843, stated change not applied): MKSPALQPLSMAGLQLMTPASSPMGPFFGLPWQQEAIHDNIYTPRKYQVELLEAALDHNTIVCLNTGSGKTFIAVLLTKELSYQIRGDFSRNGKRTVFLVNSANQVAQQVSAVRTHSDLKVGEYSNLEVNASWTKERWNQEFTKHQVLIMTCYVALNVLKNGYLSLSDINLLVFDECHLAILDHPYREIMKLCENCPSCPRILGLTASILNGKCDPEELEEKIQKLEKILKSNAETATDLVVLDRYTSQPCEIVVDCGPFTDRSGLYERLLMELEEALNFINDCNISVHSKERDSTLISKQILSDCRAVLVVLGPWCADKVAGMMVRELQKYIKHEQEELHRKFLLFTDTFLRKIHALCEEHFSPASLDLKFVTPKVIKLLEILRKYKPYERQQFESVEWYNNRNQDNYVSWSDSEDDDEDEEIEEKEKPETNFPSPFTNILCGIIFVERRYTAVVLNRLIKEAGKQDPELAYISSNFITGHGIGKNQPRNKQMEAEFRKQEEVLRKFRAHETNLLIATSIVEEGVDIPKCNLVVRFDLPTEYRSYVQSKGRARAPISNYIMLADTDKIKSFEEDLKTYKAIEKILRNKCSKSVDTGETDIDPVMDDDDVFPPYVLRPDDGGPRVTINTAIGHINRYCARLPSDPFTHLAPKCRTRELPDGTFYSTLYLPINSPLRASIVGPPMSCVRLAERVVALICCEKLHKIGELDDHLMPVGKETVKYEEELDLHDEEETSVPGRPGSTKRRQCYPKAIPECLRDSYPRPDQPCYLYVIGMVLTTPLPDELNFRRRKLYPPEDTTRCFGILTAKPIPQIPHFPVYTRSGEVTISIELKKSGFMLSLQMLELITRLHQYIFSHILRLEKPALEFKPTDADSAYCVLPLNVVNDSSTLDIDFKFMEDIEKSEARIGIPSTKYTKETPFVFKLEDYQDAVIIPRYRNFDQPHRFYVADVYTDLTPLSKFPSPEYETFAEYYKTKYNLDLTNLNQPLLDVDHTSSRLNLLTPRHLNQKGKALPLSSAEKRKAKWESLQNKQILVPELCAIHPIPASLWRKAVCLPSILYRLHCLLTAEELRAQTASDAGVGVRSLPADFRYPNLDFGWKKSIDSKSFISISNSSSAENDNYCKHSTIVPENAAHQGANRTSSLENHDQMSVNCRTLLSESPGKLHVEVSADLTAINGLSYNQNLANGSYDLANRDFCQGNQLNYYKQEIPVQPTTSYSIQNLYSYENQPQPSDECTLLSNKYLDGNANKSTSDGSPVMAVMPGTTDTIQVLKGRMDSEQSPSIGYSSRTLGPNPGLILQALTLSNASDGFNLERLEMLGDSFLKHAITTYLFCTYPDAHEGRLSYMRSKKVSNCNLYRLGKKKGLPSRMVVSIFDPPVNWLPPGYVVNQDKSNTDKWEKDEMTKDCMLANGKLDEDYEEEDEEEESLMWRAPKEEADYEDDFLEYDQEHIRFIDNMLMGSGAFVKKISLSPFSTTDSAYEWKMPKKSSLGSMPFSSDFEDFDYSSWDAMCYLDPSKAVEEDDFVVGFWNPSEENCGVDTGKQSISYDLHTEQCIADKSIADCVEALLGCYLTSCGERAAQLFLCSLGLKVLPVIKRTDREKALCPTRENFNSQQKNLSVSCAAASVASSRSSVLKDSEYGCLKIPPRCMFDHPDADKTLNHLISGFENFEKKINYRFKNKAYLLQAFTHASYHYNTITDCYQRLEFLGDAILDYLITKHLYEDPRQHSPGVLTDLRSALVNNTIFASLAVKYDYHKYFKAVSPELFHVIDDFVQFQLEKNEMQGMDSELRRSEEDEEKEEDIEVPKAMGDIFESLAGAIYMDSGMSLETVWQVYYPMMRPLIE

B1: pre-hlet-7 hairpin RNA (ssRNA)
RNA: UGAGGUAGUAGGUUGUAUAGUUUUAGGGUCACACCCACCACUGGGAGAUAACUAUACAAUCUACUGUCUUACC
Regarding B1, the “Kd relative to full-length Dicer” value in the series with ΔdsRBD human Dicer (label: 5'-32P, hairpin) is ≤ 3 fold of full-length Kd (30 nM). For the same molecule, the “Kd relative to full-length Dicer (fold)” value in series [1] (label: 5'-32P, hairpin) was ≤ 3 fold of full-length Kd (30 nM); in series [2] (label: 5'-32P, hairpin), ≤ 3 fold of full-length Kd (30 nM).

B2: 37ab duplex RNA (dsRNA)
RNA 1: UGAGGUAGUAGGUUGUAUAGUUUGAAAGUUCACGAUU
RNA 2: UCGUGAACUUUCAAACUAUACAACCUACUACCUCAUU
Consider B2, for which the “Kd relative to full-length Dicer” value with ΔdsRBD human Dicer (setting [3]) was ≤ 3 fold of full-length Kd (75 nM). For the same molecule, the “Kd relative to full-length Dicer (fold)” value in series [1] (setting [3]) and in series [2] (setting [3]) was ≤ 3 fold of full-length Kd (75 nM) throughout.
